“Also recorded” adds a separate entry of the source.
Assays:
zebrafish = assay: DMSO tolerance of zebrafish; type: in vivo; settings: added to the fish water
From the text: Moreover, the inventors have discovered that zebrafish are also DMSO (dimethyl sulphoxide) tolerant. This is important as DMSO is used as a solvent to dissolve many drugs. The inventors have established that zebrafish can tolerate 1% DMSO. Thus, a candidate drug or other test substance may be dissolved in DMSO and administered to zebrafish by adding to the fish water to give a final concentration of DMSO of at least up to 1%. This is employed in various preferred aspects and embodiments of the present invention.

[1] = system: zebrafish larvae (bone formation); assay: Anabolic bone screen in zebrafish larvae; type: in vivo; settings: for anabolic effects (promoting bone), dose/response: 3 d.p.f. to 8 d.p.f., range of concentrations
Procedure: A 1 mg/ml stock of parathyroid hormone (PTH) (Sigma) was made in 20 mM NaH2PO4 and 2.13g/L mannitol. A […] stock of cholecalciferol (Vitamin D)(Sigma) was made in dH2O. […]
(§1) Embryos and larvae were fixed in 4% paraformaldehyde (PFA), then labelled with alizarin red as described herein. In vivo labelling was achieved by rearing fish in 0.05% alizarin red in embryo medium.
(§2) Stained larvae were mounted on depression slides and visualised by fluorescence microscopy on a BX51 microscope (Olympus) and images were captured using a ColorView camera and AnalySis software (Olympus). The intensity of and area of alizarin red fluorescence was quantified for each treatment group, with a minimum of 5 samples per group, using colour threshold and area measurements in AnalySis (Olympus). Mean values and standard deviations were calculated using Excel software (Microsoft Office).
In addition to screening for the rescue of osteoporosis, we observed that anabolic bone effects could also be detected.

[2] = system: zebrafish larvae with prednisolone-induced osteoporosis; assay: Rescue of prednisolone-induced osteoporosis with etidronate in zebrafish larvae; type: in vivo
Procedure: 1) Osteoporosis was induced with prednisolone as described above.
2) Etidronic acid (Sigma H6773) was made up as […] stock in embryo medium.
3) Osteoporosis was rescued by co-administration of etidronic acid and prednisolone from 3 d.p.f. to 10 d.p.f.
A 10 mg/ml stock solution of etidronate (Sigma) in embryo medium was used in all prednisolone rescue experiments. The pH of the solution was adjusted to pH 7.5 using NaOH. The stock was stored at 4° C. for a maximum of 2 months. […]. OP was induced by exposure of larvae to 10 ug/ml prednisolone from 3 d.p.f. to 6 d.p.f. At 6 d.p.f., medium containing 10 ug/ml prednisolone was removed and replaced with 10 ug/ml prednisolone in combination with etidronate.
as §1, §2
A dose/response study was performed using larvae exposed to varying doses of etidronate in the presence of prednisolone (at 10 ug/ml) from 3 d.p.f. to 9 d.p.f. Samples were stained with alizarin red and the area of stained tissue was quantified using AnalySis software. The average stained area was calculated from five samples at each concentration and plotted as a mineralization index.

zebrafish larvae = assay: Toxicity / viability of zebrafish larvae in embryo medium containing compound
Procedure: For compound screening, a dose of 10 ug/ml prednisolone may be used, although other doses and durations of exposure may also be used.

Molecule: C[S+](C)[O-] [DMSO, dimethyl sulphoxide]
- DMSO concentration tolerated by zebrafish (zebrafish): 1%

Molecule: C=C1CC[C@H](O)C/C1=C/C=C1\CCC[C@]2(C)[C@@H]([C@H](C)CCCC(C)C)CC[C@@H]12 [Cholecalciferol, cholecalciferol, reference compound]
- anabolic effects (promoting bone), dose/response [1]: clear dose/response in relation to promoting bone

Molecule: CC(O)(P(=O)(O)O)P(=O)(O)O [etidronate, Etidronic acid]
- rescue of OP phenotype in wholemount skeletal preparations (amount of staining) ([2]; etidronate 10 ug/ml with prednisolone 10 ug/ml): rescue is readily observed; also recorded: clear increase in the amount of staining
- dose/response, fluorescence intensity in stained bones in vivo ([2]; increasing doses of etidronate in the presence of prednisolone): correlated with recovery from OP
- dose/response, area of stained tissue (mineralization index) ([2]; varying doses of etidronate with prednisolone 10 ug/ml, 3 d.p.f. to 9 d.p.f.): clear correlation between increasing doses of etidronate and rescue of the OP phenotype
- viability of larvae (zebrafish larvae; 5 ug/mi etidronic acid co-administered with 10 ug/ml prednisolone): viable beyond 10 d.p.f.
- viability of larvae (zebrafish larvae; 10 ug/ml etidronate co-administered with 10 ug/ml prednisolone): viable beyond 10 d.p.f.

B1: parathyroid hormone (peptide, UniProt P01270 32-115, looked up)
Parathyroid hormone: SVSEIQLMHNLGKHLNSMERVEWLRKKLQDVHNFVALGAPLAPRDAGSQRPRKKEDNVLVESHEKSLGEADKADVNVLTKAKSQ
modifications: Parathyroid hormone
notes: parathyroid hormone (PTH) (Sigma)
- Summary of effects ([1]; 40 ng/ml, Continuous, 3 d.p.f. to 8 d.p.f): Anabolic effect
- Summary of effects ([1]; 100 ng/ml, Continuous, 3 d.p.f. to 8 d.p.f): Mild catabolic
- Summary of effects ([1]; 200 ng/ml, Brief, 6 hours on 5 d.p.f, effects noted on 8 d.p.f.): Strong anabolic
- Summary of effects ([1]; 200 ng/ml, Continuous, 3 d.p.f. to 8 d.p.f): Strong catabolic
- effect on bone ([1]; 200 ng/ml, administered for 6-8 hours and then removed from the medium): anabolic effect
- effect on bone ([1]; 206 ng/ml, administered continuously from 3 d.p.f to 9 d.p.f.): catabolic effect
- anabolic effects (promoting bone), dose/response [1]: clear dose/response in relation to promoting bone
- effect on bone ([1]; doses up to 100 ng/ml, administered continuously from 3 d.p.f to 9 d.p.f.): anabolic effect

— patent US20060150259A1, “Model of bone disease amenable to high-throughput screening” (priority 2003, published 2006)
